Laboratory results published in patent publication US20220324978A1 (BIOCYTOGEN PHARMACEUTICALS BEIJING, published 2022).
Substitutions are numbered along the chain they refer to.

T1: canine PD-1 (on transfected CHO cells) (canine)
T1 construct: also called dPD-1
T1 chain: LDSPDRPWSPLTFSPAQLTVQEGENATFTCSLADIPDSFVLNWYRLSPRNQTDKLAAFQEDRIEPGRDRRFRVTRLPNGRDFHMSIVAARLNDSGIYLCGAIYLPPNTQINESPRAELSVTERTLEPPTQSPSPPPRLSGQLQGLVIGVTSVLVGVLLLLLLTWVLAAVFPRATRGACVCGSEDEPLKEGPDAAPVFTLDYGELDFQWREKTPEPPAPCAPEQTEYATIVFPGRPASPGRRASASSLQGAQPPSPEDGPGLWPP

T2: feline PD-1 (on transfected CHO cells) (feline)
T2 construct: Expressed from a vector that also expresses EGFP; also called cPD-1
T2 chain: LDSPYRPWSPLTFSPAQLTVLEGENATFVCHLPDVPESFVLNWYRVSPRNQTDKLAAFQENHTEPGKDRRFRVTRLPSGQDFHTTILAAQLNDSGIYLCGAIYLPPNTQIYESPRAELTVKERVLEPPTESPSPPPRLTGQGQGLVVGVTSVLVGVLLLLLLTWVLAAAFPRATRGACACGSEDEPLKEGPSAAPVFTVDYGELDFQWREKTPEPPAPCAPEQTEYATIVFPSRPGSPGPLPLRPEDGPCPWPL

B1: 1B9-mHvKv-dIgG4 (antibody, V domains shown)
VH: QVQLQQPGAELVRPGASVKLSCKASGYTFTSFWMNWVKLRPEQGLEWIGRVDPYDSETHYNQKFKDKAILTVDKSSSTAYMQLSSLTSEDSAVYYCATQFGFSWLAYWGQGTLVTVSA
VL: not shown
notes: also called 1B9-mHvKv-IgG4; 1B9-mHvKv-dlgG4
B2: 4A7-mHvKv-dIgG4 (antibody, V domains shown)
VH: EVQLVESGGDLVKPGGSLKLSCVASGFPFSNFGMSWVRQTPDKRLEWVATISSGSSYSYYSDSVKGRFTISRDNAKNTLFLQMNSLKSEDTAIFYCARGESRFAYWGQGTLVTVSA
VL: DVVITQDELSNPVTSGESVSISCRSNKSLLYEDGQTYLNWFLQRPGQSPQLLIYLMSTRASGVSDRFSGSGSGTDFTLEISEVRAEDVGVYYCQQLIEYPLTFGAGTKLELKR
notes: also called 4A7-mHvKv-IgG4; 4A7-mHvKv-dlgG4
B3: 1D8-mHvKv-dIgG4 (antibody, V domains shown)
VH: B2 VH with V23A, P28T, S30N, T40N, I51L, S58T, F80Y, I93M, F94Y, A97T
VL: B2 VL with D1G, N26S, E32K, Q35K, E82R, R84K
notes: also called 1D8-mHvKv-IgG4; 1D8-mHvKv-dlgG4

What was measured:
[1] = target: T1, canine PD-1 (on transfected CHO cells); assay: flow cytometry blocking assay on CHO cells transiently transfected with canine PD-1; antibody at 5 µg/mL; blocked ligand biotin-labeled dPD-L1 (5 µg/ml), detected with Streptavidin-PE
Protocol: (§1) The anti-dPD-1 chimeric antibodies were collected from mouse ascites fluid and purified by chromatography. 25 μl CHO cells transiently transfected with canine PD-1 were added to each well in a plate. The purified antibodies were titrated to the desired final concentrations, and were added to each well at 25 μl per well at 4° C. and incubated for 30 minutes.
(§2) After being washed with phosphate-buffered saline (PBS) twice (1200 rpm, 5 minutes), 50 μl of PE-labeled Streptavidin (Streptavidin-PE) at 1:100 dilution was added into each well, and incubated for 30 minutes at 4° C., followed by PBS wash (1200 rpm, 5 minutes). 20 μl of PBS was added. The signals for PE was detected by flow cytometry (Intellicyt).

[2] = target: T1, canine PD-1 (on transfected CHO cells); assay: flow cytometry blocking assay on CHO cells transiently transfected with canine PD-1; antibody at 0.5 µg/mL; blocked ligand biotin-labeled dPD-L1 (5 µg/ml), detected with Streptavidin-PE
Protocol: as §1, §2

[3] = target: T1, canine PD-1 (on transfected CHO cells); assay: flow cytometry blocking assay on CHO cells transiently transfected with canine PD-1; antibody at 0.05 µg/mL; blocked ligand biotin-labeled dPD-L1 (5 µg/ml), detected with Streptavidin-PE
Protocol: as §1, §2

[4] = target: T1, canine PD-1 (on transfected CHO cells); assay: flow cytometry blocking assay on CHO cells transiently transfected with canine PD-1; antibody at 0.005 µg/mL; blocked ligand biotin-labeled dPD-L1 (5 µg/ml), detected with Streptavidin-PE
Protocol: as §1, §2

[5] = target: T1, canine PD-1 (on transfected CHO cells); assay: flow cytometry (MFI) on CHO cells with canine PD-1
Protocol: 25 μl CHO cells were added to each well.
30 μl of PBS was then added.

[6] = target: T2, feline PD-1 (on transfected CHO cells); assay: flow cytometry (MFI) on CHO cells with feline PD-1 and EGFP
Protocol: In FIG. 9, the CHO cells were transfected with an expression vector that expresses feline PD-1 and EGFP. 25 μl purified anti-dPD-1 chimeric antibodies with different concentrations were added to each well. After being washed with PBS (1200 rmp, 5 min) twice, 50 μl of Alexa Fluor 647 labeled anti-dog IgG Fc antibody (anti-dIgG Fc-647) was added into each well at 1:500 dilution, followed by incubating at 4° C. for 30 minutes, and then PBS wash (1200 rmp, 5 min). 30 μl of PBS was then added. […] EC50 were also determined from the data.

[7] = target: T3, human PD-1 (on transfected CHO cells) (human, UniProt Q15116 25-288); assay: flow cytometry on CHO-hPD-1 cells; Anti-dog-IgG Fc-FITC (1:100)
T3 construct: also called hPD-1
T3 sequence (Q15116 25-288 limits assumed): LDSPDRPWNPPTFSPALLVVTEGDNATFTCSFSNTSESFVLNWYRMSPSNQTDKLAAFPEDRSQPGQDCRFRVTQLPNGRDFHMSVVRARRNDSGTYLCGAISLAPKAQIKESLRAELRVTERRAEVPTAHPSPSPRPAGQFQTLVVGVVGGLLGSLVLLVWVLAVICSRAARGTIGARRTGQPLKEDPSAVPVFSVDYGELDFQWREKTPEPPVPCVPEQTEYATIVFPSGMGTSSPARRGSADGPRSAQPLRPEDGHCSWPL
Protocol: After being washed with PBS (1200 rmp, 5 min) twice, FITC labeled anti-dog IgG Fc antibody (anti-dIgG Fc-FITC) was added into each well 1:100 dilution, followed by incubating at 4° C. for 30 minutes, and then PBS wash (1200 rmp, 5 min). The signals for FITC were determined by flow cytometry.

| Binder | percent of cells in the dPD-L1-positive (PE) gate [1] [%] | percent of cells in the dPD-L1-positive (PE) gate [2] [%] | percent of cells in the dPD-L1-positive (PE) gate [3] [%] | percent of cells in the dPD-L1-positive (PE) gate [4] [%] | EC50 [5] [nM] | EC50 [6] [nM] | binding result [7] |
| --- | --- | --- | --- | --- | --- | --- | --- |
| B1 | 0.504 | 4.4 | 47 | 45.1 |  |  |  |
| B2 | 3.37 | 1.7 | 27.1 | 34.1 | 4.81 | 1.53 |  |
| B3 | 4.38 | 0.161 | 18.8 | 39.2 |  | 7.29 | no binding (tested: 10 µg/ml) |
